Substitutions are numbered along the chain they refer to. Names may count otherwise.
B1: unactivated neprosin polypeptide prepared from cells expressing mSP-His-Npr1 (SEQ ID NO: 40) (protein)
chain: HHHHHHRSIQARLANKPKGTIKTIKGDDGEVVDCVDIYKQPAFDHPLLKNHTLQMQPSSYASKVGEYNKLEQPWHKNGECPKGSIPIRRQVITGLPVVKKQFPNLKFAPPSANTNHQYAVIAYFYGNASLQGANATINIWEPNLKNPNGDFSLTQIWISAGSGSSLNTIEAGWQVYPGRTGDSQPRFFIYWTADGYTSTGCYDLTCPGFVQTNNYYAIGMALQPSVYGGQQYELNESIQRDPATGNWWLYLWGTVVGYWPASIYNSITNGADTVEWGGEIYDSSGTGGFHTTTQMGSGHFPTEGYGKASYVRDLQCVDTYGNVISPTANSFQGIAPAPNCYNYQFQQGSSELYLFYGGPGCQ
B2: activated (mature, proteolytically active) neprosin Npr1 prepared by acid treatment (100 mM glycine, pH 2.5) of Npr1 purified from cells expressing … (protein)
chain: SANTNHQYAVIAYFYGNASLQGANATINIWEPNLKNPNGDFSLTQIWISAGSGSSLNTIEAGWQVYPGRTGDSQPRFFIYWTADGYTSTGCYDLTCPGFVQTNNYYAIGMALQPSVYGGQQYELNESIQRDPATGNWWLYLWGTVVGYWPASIYNSITNGADTVEWGGEIYDSSGTGGFHTTTQMGSGHFPTEGYGKASYVRDLQCVDTYGNVISPTANSFQGIAPAPNCYNYQFQQGSSELYLFYGGPGCQ
B3: activated N216A/N324A Npr1 prepared from pJAG-s1-His-N216A, N324A Npr1 expressed in Pichia cells (SEQ ID NO: 66) (protein)
chain: B2 chain with N17A, N125A
B4: activated N216A Npr1 prepared from pJAG-s1-His-N216A Npr1 expressed in Pichia cells (SEQ ID NO: 60) (protein)
chain: B2 chain with N17A
B5: activated WT Npr1 prepared from Npr1 expressed in Pichia cells (pJAG-s1-His-Npr1) (protein)
chain: B2 chain

Target: gliadin substrate

Row | Protein | proteolytic activity on gliadin substrate (percent of gliadin remaining, RIDASCREEN Gliadin competitive ELISA; pH 4, 37 C, 5 or 30 min) | gliadin digestion in buffered SGF (pH 3, 0.8 mg/mL pepsin), RIDASCREEN Gliadin competitive ELISA, 0-60 min | proteolytic activity on gliadin substrate inside a mouse stomach (enzyme-to-substrate ratio 1:1000 or 1:10,000, 15 min; RIDASCREEN Gliadin competitive ELISA) | gliadin digestion in buffered SGF (pH 3, 0.8 mg/mL pepsin), RIDASCREEN Gliadin competitive ELISA
1 | B1 | Neprosin preparation activated by treatment at acidic pH displays significantly greater proteolytic activity compared to unactivated neprosin polypeptide prepared from cells expressing mSP-His-Npr1 | – | – | –
2 | B2 | Neprosin preparation activated by treatment at acidic pH displays significantly greater proteolytic activity compared to unactivated neprosin polypeptide prepared from cells expressing mSP-His-Npr1 | shows equivalent gliadin digestion activity when compared to the enzyme prepared from mammalian CHO cells | dose-dependent proteolytic activity of activated WT Npr1 prepared from Npr1 expressed in CHO cells on gliadin substrate inside a mouse stomach | –
3 | B3 | – | – | – | Both N216A Npr1 and N216A/N324A Npr1 digested gliadin in a similar manner as WT Npr1 produced in Pichia
4 | B4 | – | – | – | Both N216A Npr1 and N216A/N324A Npr1 digested gliadin in a similar manner as WT Npr1 produced in Pichia
5 | B5 | – | The activated neprosin protease from Pichia is proteolytically active on gliadin substrate in SGF and shows equivalent gliadin digestion activity when compared to the enzyme prepared from mammalian CHO cells | – | –

Source: patent US20240026331
